Molecular target: T1, His-tagged HMGB1 (UniProt P09429)
T1 sequence: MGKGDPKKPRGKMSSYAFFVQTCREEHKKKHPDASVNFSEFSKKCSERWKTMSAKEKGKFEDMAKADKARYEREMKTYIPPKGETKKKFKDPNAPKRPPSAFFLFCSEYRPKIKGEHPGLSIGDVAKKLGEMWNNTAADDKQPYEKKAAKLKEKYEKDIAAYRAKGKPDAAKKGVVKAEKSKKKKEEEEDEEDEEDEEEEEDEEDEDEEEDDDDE
Experiment: SPR
Settings: comparative pool; no signal increase in FIG. 1; unit M inferred

## GGGACGCUCACGUACGCUCANNNNNNNNNNNNNNNNNNNNNNNNNNNNNNNNNNNNNNNNUCAGUGCCUGGACGUGCAGU [40N random RNA pool]
  Kd: 1040 nM

Source: patent US20120208867
